Laboratory results: publication PMC6166933 (PLoS ONE, 2018)
“And” between values parts separate entries of the source, which are not always exact repeats. Identical values can stand only once.

Target: T1, Recombinant human RO60 (human, UniProt P10155 1-538)
T1 construct: Recombinant human RO60 (rRO60), Abcam ab73786; see the vendor's data sheet for ab73786; also called rRO60; source: bought: Abcam (ab73786)
Experiment: BLI; BLItz system; antibody against RO60 captured on a Protein-A biosensor, rRO60 bound to it, rDDX6 bound for 2 min and dissociation for 2 min; 25°C; 10 mM Tris-HCl (pH 8.0), 150 mM NaCl; 193 nM rDDX6 with 917 nM or 1833 nM rRO60
Settings: both partners purified

T1 sequence (P10155 whole entry): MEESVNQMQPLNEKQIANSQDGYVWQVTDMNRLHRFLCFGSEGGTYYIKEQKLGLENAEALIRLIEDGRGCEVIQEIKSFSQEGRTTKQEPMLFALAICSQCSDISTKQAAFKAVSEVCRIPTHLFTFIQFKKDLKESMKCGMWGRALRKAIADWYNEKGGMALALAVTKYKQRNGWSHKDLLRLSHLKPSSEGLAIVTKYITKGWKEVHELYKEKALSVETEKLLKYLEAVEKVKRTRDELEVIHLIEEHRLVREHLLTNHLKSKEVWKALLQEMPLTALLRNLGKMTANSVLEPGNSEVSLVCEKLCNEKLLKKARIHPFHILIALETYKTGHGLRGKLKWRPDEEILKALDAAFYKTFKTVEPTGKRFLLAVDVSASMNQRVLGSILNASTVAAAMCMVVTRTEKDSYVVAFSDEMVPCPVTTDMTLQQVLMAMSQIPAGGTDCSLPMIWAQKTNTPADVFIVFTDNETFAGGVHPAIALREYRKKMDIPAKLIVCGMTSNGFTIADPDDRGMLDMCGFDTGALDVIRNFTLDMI

- Kd: 620 nM and 950 nM
B1: Recombinant GST-tagged human DDX6 (natural protein, UniProt P26196 1-483, looked up)
chain: MSTARTENPVIMGLSSQNGQLRGPVKPTGGPGGGGTQTQQQMNQLKNTNTINNGTQQQAQSMTTTIKPGDDWKKTLKLPPKDLRIKTSDVTSTKGNEFEDYCLKRELLMGIFEMGWEKPSPIQEESIPIALSGRDILARAKNGTGKSGAYLIPLLERLDLKKDNIQAMVIVPTRELALQVSQICIQVSKHMGGAKVMATTGGTNLRDDIMRLDDTVHVVIATPGRILDLIKKGVAKVDHVQMIVLDEADKLLSQDFVQIMEDIILTLPKNRQILLYSATFPLSVQKFMNSHLQKPYEINLMEELTLKGVTQYYAYVTERQKVHCLNTLFSRLQINQSIIFCNSSQRVELLAKKISQLGYSCFYIHAKMRQEHRNRVFHDFRNGLCRNLVCTDLFTRGIDIQAVNVVINFDFPKLAETYLHRIGRSGRFGHLGLAINLITYDDRFNLKSIEEQLGTEIKPIPSNIDKSLYVAEYHSEPVEDEKP
notes: Recombinant GST-tagged human DDX6 (rDDX6), Abcam ab114574; it is not clear that this means full length; The printed 79 kDa with GST would fit the whole protein; also called rDDX6; source: bought: Abcam (ab114574)
